The source of these data is article PMC3877065, “Ligand Recognition by the TPR Domain of the Import Factor Toc64 from Arabidopsis thaliana” (PLoS ONE, 2013).

To fix the notation:
B1: C-terminal pentapeptide of Hsp70, Hsp70_C5 (IEEVD) (peptide)
peptide: IEEVD
notes: C-terminal pentapeptide of Hsp70; also called C70_C5; Hsp70 pentapeptide; source: synthetic peptide (Biomatik, >85% purity)
B2: C-terminal octapeptide of Hsp90 (TSRMEEVD) (peptide)
peptide: TSRMEEVD
notes: C-terminal octapeptide of Hsp90; also called Hsp90 octapeptide; C90_C8; source: synthetic peptide (Biomatik, >85% purity)
B3: C-terminal octapeptide of Hsp70 (GPTIEEVD) (peptide)
peptide: GPTIEEVD
notes: C-terminal octapeptide of Hsp70; also called Hsp70 octapeptide; C70_C8; source: synthetic peptide (Biomatik, >85% purity)
B4: C-terminal pentapeptide of Hsp90, Hsp90_C5 (MEEVD) (peptide)
peptide: MEEVD
notes: C-terminal pentapeptide of Hsp90; also called C90_C5; Hsp90 pentapeptide; source: synthetic peptide (Biomatik, >85% purity)

Where no end group is shown, it is not given here.

One assay concerns the target T1, TPR domain of AtToc64 with a C-terminal hexa-histidine tag (AtToc64_TPR-H6) (Arabidopsis thaliana, UniProt Q9LVH5 474-589).
T1 chain: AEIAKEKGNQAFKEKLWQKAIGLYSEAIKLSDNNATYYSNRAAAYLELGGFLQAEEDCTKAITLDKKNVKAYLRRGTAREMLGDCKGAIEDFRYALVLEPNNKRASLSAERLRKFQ
Description: ITC.
Settings: not given
What is called Kd is the free concentration of one partner at which half of the binding sites on the other are occupied at equilibrium, for simple one-to-one binding. A high value points to a looser complex. TSRMEEVA [Hsp90 C-terminal octapeptide, Asp124 to Ala] registered an equilibrium dissociation constant (Kd) of 1400 µM.
On the same count and under the same terms, then GPTAEEVD [Hsp70 C-terminal octapeptide, Ile120 to Ala (GPTAEEVD)], with 4600 µM; and TSRAEEVD [Hsp90 C-terminal octapeptide, Met120 to Ala (TSRAEEVD)], with 1080 µM; and GPAIEEVD [Hsp70 C-terminal octapeptide, Thr119 to Ala (GPAIEEVD)], with 769 µM.
Same read-out and setting: with ASRMEEVD [Hsp90 C-terminal octapeptide, Thr117 to Ala] the figure was 854 µM; with GATIEEVD [Hsp70 C-terminal octapeptide, Pro118 to Ala (GATIEEVD)], 657 µM.
TARMEEVD [Hsp90 C-terminal octapeptide, Ser118 to Ala (TARMEEVD)] yielded a Kd of 344 µM.
As to TSRMEAVD [Hsp90 C-terminal octapeptide, Glu122 to Ala (TSRMEAVD)], the Kd came out at 1900 µM.
The same measure, in the same setting: with APTIEEVD [Hsp70 C-terminal octapeptide, Gly117 to Ala] the figure was 740 µM; with TSAMEEVD [Hsp90 C-terminal octapeptide, Arg119 to Ala (TSAMEEVD)], 100 µM.

The target of a further assay is TPR domain of AtToc64 with a C-terminal hexa-histidine tag (AtToc64_TPR-H6) (Arabidopsis thaliana) (UniProt Q9LVH5). Description: ITC; peptide (6-14 mM) titrated into AtToc64_TPR-H6 (0.1-0.3 mM) in the cell, VP-ITC, 20°C, 25 mM Hepes, 100 mM KCl, pH 7.3; 1:1 model, stoichiometry fixed at N = 1 for the alanine scan.
Settings: not given
Background: Isothermal titration calorimetry measures the heat released or taken up as one component is titrated into another.
The stoichiometry N is the number of molecules, sites or subunits per partner or assembly. In the case of “Hsp70 C-terminal octapeptide, alanine mutant APTIEEVD”, the Kd came to 740 µM and the stoichiometry N was 1.
“Hsp70 C-terminal octapeptide, alanine mutant GPTAEEVD” displayed a stoichiometry N of 1.
“Hsp90 C-terminal octapeptide, alanine mutant TSRAEEVD” showed a Kd of 1080 µM and a stoichiometry N of 1.
The like results for “Hsp90 C-terminal octapeptide, alanine mutant TSAMEEVD” were, in that order, 100 µM and 1.
Take “Hsp90 C-terminal octapeptide, alanine mutant TSRMEEVA”: the stoichiometry N is 1.
With “Hsp90 C-terminal octapeptide, alanine mutant TARMEEVD”, the Kd came out at 344 µM and the stoichiometry N was determined as 1.
Taken in the same sequence, the figures for “Hsp70 C-terminal octapeptide, alanine mutant GATIEEVD” were 657 µM and 1.
Molecule “Hsp70 C-terminal octapeptide, alanine mutant GPAIEEVD” came in with a Kd of 769 µM and a stoichiometry N of 1.
“Hsp90 C-terminal octapeptide, alanine mutant TSRMEAVD” came in with a stoichiometry N of 1.
Regarding “Hsp90 C-terminal octapeptide, alanine mutant ASRMEEVD”, the Kd worked out at 854 µM and the stoichiometry N came out at 1.

The next assay has as its target T2, TPR domain of AtToc64 with a C-terminal hexa-histidine tag (AtToc64_TPR-H6) (Arabidopsis thaliana, UniProt Q9LVH5 474-589).
T2 construct: Toc64 (AtToc64) from Arabidopsis thaliana, TPR domain, residues 474-589 of the full-length protein (NP_188424, At3g17970); Cloned with NcoI/XhoI into pETM10; also called TPR domain of Toc64 from Arabidopsis thaliana; source: E. coli BL21(DE3), purified (Ni-NTA, size exclusion chromatography); not shown: His6, C-terminal, kept
T2 sequence (looked up): T1 chain
Description: ITC; peptide (6-14 mM) titrated into 1.4 ml of protein (0.1-0.3 mM) in the cell; 20°C; 25 mM Hepes, 100 mM KCl, pH 7.3; 30 injections of 10 µL; 1:1 binding model with N, Kd and ΔH floating. Particulars: both partners purified.
For B1, the “stoichiometry N” value came to 1.2.

Another assay deals with T2, TPR domain of AtToc64 with a C-terminal …. Described as above. The following applies: both partners purified. The source holds these as a separate data set.
For the molecule B2, the dH is -6.18 kcal/mol and the “stoichiometry N” value was determined as 0.94.
The like results for B3 were, in that order, -1 kcal/mol and 1.2.
For B1, the dH was -1.63 kcal/mol and the “stoichiometry N” value stood at 0.93.
In the case of B4, the dH is -2.68 kcal/mol and the “stoichiometry N” value turned out to be 1.04.

For the next assay, the target named is T3, TPR domain of AtToc64 (AtToc64_TPR-H6) (Arabidopsis thaliana, UniProt Q9LVH5).
T3 construct: The region encompassing the TPR domain of AtToc64 was composed of residues 474–589; made in house; host or cells: E. coli BL21(DE3)
Nature of the assay: biochemical. In kind it is binding.
Settings: not given
Here is the method: Peptides were dissolved in the superdex buffer at 6–14 mM concentration and 302 µL were titrated against 1.4 ml of protein at 0.1–0.3 mM in a VP-ITC Microcal Instrument (GE Healthcare). Titrations were carried out at 20°C using 30 injections of 10 µL each injected at interval of 200 seconds. Injections were continued beyond saturation levels to allow determination of the heats of ligand dilution. The non-linear least square curve-fitting algorithm (Microcal Origin) was used for data fitting. After subtraction of the heat of dilution, three floating variables: stoichiometry (N), binding constant (Kd) and change in enthalpy of interaction (ΔH) were obtained. For subsequent alanine scan experiments the stoichiometry was fixed at N = 1.
In the case of TSRMEEVD [TSRMEEVD], the affinity, expressed as Kd, was 218 µM.
Same read-out and setting: with `CC[C@H](C)[C@H](N)C(=O)N[C@@H](CCC(=O)O)C(=O)N[C@@H](CCC(=O)O)C(=O)N[C@H](C(=O)N[C@@H](CC(=O)O)C(=O)O)C(C)C` [IEEVD] the figure was 568 µM.
The same measure, in the same setting: then TSRMEAVD [TSRMEAVD], with 1910 µM.
Still for that read-out and setting: with `CSCC[C@H](N)C(=O)N[C@@H](CCC(=O)O)C(=O)N[C@@H](CCC(=O)O)C(=O)N[C@H](C(=O)N[C@@H](CC(=O)O)C(=O)O)C(C)C` [MEEVD] the figure was 800 µM; with TSRMEEVA [TSRMEEVA], 1400 µM.
GPTIEEVD [GPTIEEVD] returned a Kd of 230 µM.
Still for that read-out and setting: then GPTAEEVD [GPTAEEVD], with 4650 µM.

The same assay, now with this note: ITC alanine scanning, Table S1, stoichiometry fixed at N = 1, 20°C.
Turning to “GPTIEEAD [Ala-substituted Hsp70 octapeptide]”, the Kd result was “No binding”.
Still for that read-out and setting: then “GPTIEAVD [Ala-substituted Hsp70 octapeptide]”, with “No binding”.
The same measure, in the same setting: then “GPTIEEVA [Ala-substituted Hsp70 octapeptide]”, with “No binding”; and “TSRMAEVD [Ala-substituted Hsp90 octapeptide]”, with “No binding*”.

Staying with this assay, now noted: ITC, Figure 4, alanine scanning of octapeptides; stoichiometry fixed at N = 1 for alanine scan; 20°C.
As to “TSRMEEAD [Ala-substituted Hsp90 octapeptide]”, the Kd result is reported as “No binding”.
Still for that read-out and setting: with “TSRMAEVD [Ala-substituted Hsp90 octapeptide]” the entry was “No binding”.
